# From US20240262893A1
# B1: R2D9 CDR3-knob (peptide)
# peptide: ITHKTCPNGYNWFDRCCSWDGTCGDGCCSNRAWPSGNGRADSSIGETYGYEF
# modifications: not checked
# Target: SARS-CoV-2 (Wuhan-Hu-1) wild-type (WT) spike protein carried on pseudotyped virus or on live wild-type virus (SARS-CoV-2 (Wuhan-Hu-1)), P0DTC2
# Experiment: cell-based or functional assay
binder,measurement,value
B1,"pseudovirus neutralization, ng/mL (quantity not given)",24.2 ng/mL
